“And” between values parts separate entries of the source, which are not always exact repeats. Equal entries are not always repeated. Bridge positions count the residues as written; N and C are the ends. Ends that are not written are not given here.

The target in one assay is T1, human DLL3 expressed on the surface of cells (human, UniProt Q9NYJ7 27-618).
T1 construct: Stably transfected CHO or HEK293 cells; also called huDLL3; hDLL3
T1 sequence: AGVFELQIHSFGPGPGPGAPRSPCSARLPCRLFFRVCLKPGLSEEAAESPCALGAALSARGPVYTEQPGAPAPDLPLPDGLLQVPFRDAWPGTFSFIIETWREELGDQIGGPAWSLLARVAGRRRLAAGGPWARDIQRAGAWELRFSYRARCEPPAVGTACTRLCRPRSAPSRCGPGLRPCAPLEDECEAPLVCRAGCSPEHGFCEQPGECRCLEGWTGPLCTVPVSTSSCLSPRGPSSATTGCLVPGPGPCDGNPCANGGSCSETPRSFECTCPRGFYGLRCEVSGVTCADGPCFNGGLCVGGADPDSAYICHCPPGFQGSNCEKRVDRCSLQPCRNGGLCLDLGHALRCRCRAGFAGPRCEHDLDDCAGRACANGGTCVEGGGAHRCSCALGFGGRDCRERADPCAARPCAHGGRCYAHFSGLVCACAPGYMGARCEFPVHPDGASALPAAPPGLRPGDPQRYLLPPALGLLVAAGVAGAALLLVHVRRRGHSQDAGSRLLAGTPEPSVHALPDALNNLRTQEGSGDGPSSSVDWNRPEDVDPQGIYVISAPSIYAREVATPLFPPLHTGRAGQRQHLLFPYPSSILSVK
Put plainly: phage cell ELISA/FACS on DLL3-expressing cells.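 Also: phages incubated 1 h at room temperature with cells overexpressing human DLL3, read by flow cytometry fluorescence, then fixed-cell ELISA with anti-M13-HRP at A370 nm, parental cells alongside.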
Protocol: The pools of phages were also screened for their binding to cells overexpressing human DLL3 on their surface. Cells were detached, counted and re-suspended at 1.8×10⁶ cell/ml in FACS buffer containing 2% FBS. Pre-blocked phages were then added to the cells and incubated for 1 hr at room temperature. […] Cells were then washed and re-suspended into FACS buffer. Fluorescence was acquired using a flow cytometer (FACS Canto/Becton Dickinson).
Phage clones with signal higher than four-fold above the background were further tested for their binding to DLL3 on the surface of cells expressing DLL3 by cell ELISA. Briefly, parental cells and cells overexpressing DLL3 were plated on 96 well plate the day before the assay. The cells were then fixed and washed before the addition of pre-blocked phages as previously described. The cells were then washed and anti-M13-HRP was added. The signal was measured using a Multiskan Ascent (Thermo) ELISA reader at A370 nm.
AETVEFWTCYWTEGVSGCRW (not shown: M13 pIII coat protein) [SEQ ID NO 46]: the binding result is on record as “binds”.
In the case of AETVEFYGCYGDRNDYTCTW (not shown: M13 pIII coat protein) [SEQ ID NO 42], the binding result is “binds”.
On the same count and under the same terms, to AETVEFRGCTGNVYDWTCVW (not shown: M13 pIII coat protein) [SEQ ID NO 51] belongs “binds”.
In the case of AETVEFLGCHGDNSEWTCVW (not shown: M13 pIII coat protein) [SEQ ID NO 43], the binding result is “binds”.
Take AETVEFYGCTGDAYEYTCTW (not shown: M13 pIII coat protein) [SEQ ID NO 45]: the binding result is listed as “binds”.
Same read-out and setting: to AETVEYWRCDWYEETVACGT (not shown: M13 pIII coat protein) [SEQ ID NO 47] belongs “binds”; to AETVEFWTCHGNADEWTCSW (not shown: M13 pIII coat protein) [SEQ ID NO 52], “binds”; to AETVEFYGCSMDWRGVTCAW (not shown: M13 pIII coat protein) [SEQ ID NO 49], “binds”.
As to AETVEFWDCWGNTDDWTCTW (not shown: M13 pIII coat protein) [SEQ ID NO 41], the binding result was “binds”.
For AETVEFWSCKWWGGAADEYTYSCGW (not shown: M13 pIII coat protein) [SEQ ID NO 44], the binding result is given as “binds”.
As to AETVEFWSCHYSYWTVSCGT (not shown: M13 pIII coat protein) [SEQ ID NO 48], the binding result is given as “binds”.

The target of another assay is T2, recombinant DLL3 ectodomain (rhDLL3-Fc) (human, UniProt Q9NYJ7 27-492, biotinylated (NHS-LC-LC-biotin) in the BLI and SPR assays).
T2 construct: also called rDLL3-Fc; recombinant human DLL3 (rDLL3); not shown: Fc part
T2 sequence: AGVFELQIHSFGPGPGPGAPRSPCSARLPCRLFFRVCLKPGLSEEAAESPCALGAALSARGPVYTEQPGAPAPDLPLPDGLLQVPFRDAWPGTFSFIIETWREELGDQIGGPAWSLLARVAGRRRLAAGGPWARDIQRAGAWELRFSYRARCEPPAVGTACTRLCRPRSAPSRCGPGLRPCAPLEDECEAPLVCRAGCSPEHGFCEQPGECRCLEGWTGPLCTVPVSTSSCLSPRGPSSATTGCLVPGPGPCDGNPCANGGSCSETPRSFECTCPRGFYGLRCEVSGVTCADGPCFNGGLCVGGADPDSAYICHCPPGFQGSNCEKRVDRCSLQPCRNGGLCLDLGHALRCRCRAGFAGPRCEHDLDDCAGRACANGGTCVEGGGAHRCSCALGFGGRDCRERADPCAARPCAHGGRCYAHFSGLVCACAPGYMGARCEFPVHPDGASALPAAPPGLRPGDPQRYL
In words: BLI (Octet), biotinylated rhDLL3-Fc on streptavidin sensors. Here is the method: Binding kinetic assays were performed using Bio-layer interferometry (BLI) technology. The recombinant DLL3 ectodomain (rhDLL3-Fc) was biotinylated using EZ-Link Sulfo-NHS-LC-LC-Biotin Kit according to the manufacturer's protocol (Pierce by Thermo Fisher Scientific). The recombinant protein was incubated with an excess of NHS-LC-LC Biotin ester, in a molar ratio of 1:3 (protein: biotin), at 25° C. for 90 min. The un-reacted biotin ester was removed by subsequent buffer exchange on 0.5 ml Zeba spin desalting columns 7K MWCO (Pierce by Thermo Fisher Scientific).
As to AETVEFYGCRGGDGEWTCVW-NH2 (disulfide 9-18 (inferred)) [PepSP1165], the dissociation constant (Kd) was found to be 263 nM and the “RT (residence time)” value was 66 s.
As for WGCTGTWGNETCWW-NH2 (disulfide 3-12 (inferred), PepSP1146 without AETVEF) [PepSP1213], the Kd was found to be 7500 nM and the “RT (residence time)” value amounted to 1.36 s.
The corresponding values for AETVEFYGCSVNADGWTCSW-NH2 (disulfide 9-18 (inferred)) [PepSP1170] are 166 nM and 43 s.
As to AETVEFYGCYGDRNDYTCTW-NH2 (disulfide 9-18 (inferred)) [PepSP1178], the Kd worked out at 147 nM and the “RT (residence time)” value was 75.9 s.
On to AETVEFWTCYWTEGVSGCRW-NH2 (disulfide 9-18 (inferred)) [PepSP1151], for which the dissociation constant (Kd) came to 125 nM and the “RT (residence time)” value amounted to 167 s.
Take AETVEFLGCHGDNSEWTCVW-NH2 (disulfide 9-18 (inferred)) [PepSP1163]: the Kd is 69 nM and 68.7 nM; the “RT (residence time)” value is 167 s.
Consider AETVEFYGCKWDWKGWTCAW-NH2 (disulfide 9-18 (inferred)) [PepSP1168], for which the Kd worked out at 568 nM and the “RT (residence time)” value was found to be 44 s.
Take AETVEFYGCYGEQEQWTCLW-NH2 (disulfide 9-18 (inferred)) [PepSP1173]: the Kd turned out to be 106 nM and the “RT (residence time)” value amounted to 101 s.
For the molecule AETVEFRGCTGNVYDWTCVW-NH2 (disulfide 9-18 (inferred)) [PepSP1160], the Kd amounted to 494 nM and the “RT (residence time)” value was 47 s.
The corresponding values for AETVEFYGCWGNYNDYTCSW-NH2 (disulfide 9-18 (inferred)) [PepSP1177] are 236 nM and 52 s.
The corresponding values for AETVEFWSCKWWGGAADEYTYSCGW-NH2 (disulfide 9-23 (inferred)) [PepSP1182] are 75.8 nM and 96.6 s.
WDCWGNTDDWTCTW-NH2 (disulfide 3-12 (inferred), PepSP1161 without AETVEF) [PepSP1269]: the Kd worked out at 181 nM and the “RT (residence time)” value was determined as 20 s.
On to AETVEFYGCTGDAYEYTCTW-NH2 (disulfide 9-18 (inferred)) [PepSP1147], for which the Kd came out at 59 nM and the “RT (residence time)” value was determined as 65.6 s.
On the same counts, the results for AETVEFDYCLWAPDAWGCQN-NH2 (disulfide 9-18) [PepSP1159] are 900 nM and 6 s.
Regarding AETVEFYGCSMDWRGVTCAW-NH2 (disulfide 9-18 (inferred)) [PepSP1158], the Kd is 643 nM and the “RT (residence time)” value turned out to be 31 s.
Turning to AETVEFWTCHGNADEWTCSW-NH2 (disulfide 9-18 (inferred)) [PepSP1162], the Kd turned out to be 159 nM and the “RT (residence time)” value is 51 s.
The corresponding values for AETVEFYGCQYYGWDYTCAW-NH2 (disulfide 9-18 (inferred)) [PepSP1176] are 207 nM and 67 s.
As to AETVEFDYCYGDVEEWTCVY-NH2 (disulfide 9-18 (inferred)) [PepSP1166], the Kd turned out to be 145 nM and the “RT (residence time)” value came out at 48 s.
For AETVEFYGCETYSGGWTCLW-NH2 (disulfide 9-18 (inferred)) [PepSP1167], the equilibrium dissociation constant (Kd) was 399 nM and the “RT (residence time)” value stood at 47 s.
Turning to AETVEFDGCKGDWYEWTCWW-NH2 (disulfide 9-18 (inferred)) [PepSP1164], the dissociation constant (Kd) amounted to 125 nM and the “RT (residence time)” value was found to be 125 s.
For AETVEFWSCHYSYWTVSCGT-NH2 (disulfide 9-18 (inferred)) [PepSP1157], the Kd is 123 nM and the “RT (residence time)” value amounted to 89 s.
Turning to AETVEYWRCDWYEETVACGT-NH2 (disulfide 9-18 (inferred)) [PepSP1155], the Kd is 155 nM and the “RT (residence time)” value was determined as 177 s.

In a further assay the target is T2, recombinant DLL3 ectodomain (rhDLL3-Fc). In words: phage ELISA on rDLL3-Fc.
Protocol: The pools of phages obtained after each round of selection were tested by Phage-ELISA for their binding to rDLL3-Fc and counter-screened on hIgG-Fc. Briefly, proteins were immobilized on NUNC-Maxisorp ELISA plates. Then the plates were washed and blocked. 100 μl of pre-blocked phages were added to the blocked plate and incubated for 1 hr at room temperature. Anti-M13 HRP conjugated mAb were added and the plates were read on a Multiskan Ascent (Thermo) Elisa reader at A370 nm after the addition of TMB (Sigma).
As to AETVEFWTCYWTEGVSGCRW (not shown: M13 pIII coat protein) [SEQ ID NO 46], the binding result is “binds”.
AETVEFYGCYGDRNDYTCTW (not shown: M13 pIII coat protein) [SEQ ID NO 42]: the binding result was “binds”.
On to AETVEFRGCTGNVYDWTCVW (not shown: M13 pIII coat protein) [SEQ ID NO 51], for which the binding result is recorded as “binds”.
In the case of AETVEFLGCHGDNSEWTCVW (not shown: M13 pIII coat protein) [SEQ ID NO 43], the binding result is “binds”.
Take AETVEFYGCTGDAYEYTCTW (not shown: M13 pIII coat protein) [SEQ ID NO 45]: the binding result was “binds”.
On to AETVEYWRCDWYEETVACGT (not shown: M13 pIII coat protein) [SEQ ID NO 47], for which the binding result is “binds”.
On the same count and under the same terms, to AETVEFWTCHGNADEWTCSW (not shown: M13 pIII coat protein) [SEQ ID NO 52] belongs “binds”; to AETVEFYGCSMDWRGVTCAW (not shown: M13 pIII coat protein) [SEQ ID NO 49], “binds”.
Consider AETVEFWDCWGNTDDWTCTW (not shown: M13 pIII coat protein) [SEQ ID NO 41], for which the binding result is “binds”.
In the case of AETVEFWSCKWWGGAADEYTYSCGW (not shown: M13 pIII coat protein) [SEQ ID NO 44], the binding result was “binds”.
Take AETVEFWSCHYSYWTVSCGT (not shown: M13 pIII coat protein) [SEQ ID NO 48]: the binding result is “binds”.

Source of the values: patent US20250074943A1 (Amgen, published 2025).
